The text below walks through data of the supplement of paper PMC10266784.

Sequences and labels used below:
B1: library; numbered along this chain (parent)
chain: MAAAAAAAAEQQSSNGPVKKSMREKAVERRSVNKEHNSNFKAGYIPIDEDRLHKTGLRGRKGNLAICVIILLFILAVINLIITLVIWAVIRIGPNGCDSMEFHESGLLRFKQVSDMGVIHPLYKSTVGGRRNENLVITGNNQPIVFQQGTTKLSVENNKTSITSDIGMQFFDPRTQNILFSTDYETHEFHLPSGVKSLNVQKASTERITSNATSDLNIKVDGRAIVRGNEGVFIMGKTIEFHMGGNMELKAENSIILNGSVMVSTTRLPSSSSGDQLGSGDWVRYKLCMCADGTLFKVQVTSQNMGCQISDNPCGNTH

The variants in this series derive from B1. Briefly: SGCB cell-surface expression functional score (HA stain, bin4 vs bin1, normalised to synonymous) (log10 ratio); higher = more cell-surface SGCB (functional). In a few lines: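 Human beta-sarcoglycan, tagged with HA and fused to YFP, was built into codon-saturation libraries and delivered by lentivirus at MOI <0.1 into HEK293 cells that stably express alpha-, gamma- and delta-sarcoglycan. After 72 hours, YFP-positive cells were sorted and grown for 5–7 days, then stained on ice with Alexa Fluor 647 anti-HA, fixed, sorted into four 5% intensity bins and amplicon-sequenced. Each variant's functional score is the log ratio of its frequency in the highest bin to that in the lowest bin, taken as the median across codons and transductions. Transductions were done in duplicate, and synonymous variants were scaled per section to mean 0, SD 0.5.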
Take MAAAAAAAAEQQSSNGPVKKSMREKAVERRSVNKEHNSNFKAGYIPIDEDRLHKTGLRGRKGNLAICVIILLFILAVINLIITLVIWAVIRIGPNGCDSMEFHESGLLRFKQVSDMGVIHPLYKSTVGGRRNENLVITGNNQPIVFQQGTTKLSVENNKTSITSDIGMQFFDPRTQNILFSTDYETHEFHLPSGVKSLNVQKASTERNTSNATSDLNIKVDGRAIVRGNEGVFIMGKTIEFHMGGNMELKAENSIILNGSVMVSTTRLPSSSSGDQLGSGDWVRYKLCMCADGTLFKVQVTSQNMGCQISDNPCGNTH [I208N]: the “SGCB cell-surface expression functional score (log10)” value is -1.22. Then MAAAAAAAAEQQSSNGPVKKSMREKAVERRSVNKEHNSNFKAGYIPIDEDRLHKTGLRGRKGNLAICVIILLFILAVINLIITLVIWAVIRIGPNGCDSMEFHESGLLRFKQVSDMGVIHPLYKSTVGGRRNENLVITGNNQPIVFQQGTTKLSVENNKTSITSDIGMQFFDPRTQNILFSTDYETHEFHLPSGVKSLNVQKASTERMTSNATSDLNIKVDGRAIVRGNEGVFIMGKTIEFHMGGNMELKAENSIILNGSVMVSTTRLPSSSSGDQLGSGDWVRYKLCMCADGTLFKVQVTSQNMGCQISDNPCGNTH [I208M], with -0.33; and MAAAAAAAAEQQSSNGPVKKSMREKAVERRSVNKEHNSNFKAGYIPIDEDRLHKTGLRGRKGNLAICVIILLFILAVINLIITLVIWAVIRIGPNGCDSMEFHESGLLRFKQVSDMGVIHPLYKSTVGGRRNENLVITGNNQPIVFQQGTTKLSVENNKTSITSDIGMQFFDPRTQNILFSTDYETHEFHLPSGVKSLNVQKASTERGTSNATSDLNIKVDGRAIVRGNEGVFIMGKTIEFHMGGNMELKAENSIILNGSVMVSTTRLPSSSSGDQLGSGDWVRYKLCMCADGTLFKVQVTSQNMGCQISDNPCGNTH [I208G], with -1.48. To MAAAAAAAAEQQSSNGPVKKSMREKAVERRSVNKEHNSNFKAGYIPIDEDRLHKTGLRGRKGNLAICVIILLFILAVINLIITLVIWAVIRIGPNGCDSMEFHESGLLRFKQVSDMGVIHPLYKSTVGGRRNENLVITGNNQPIVFQQGTTKLSVENNKTSITSDIGMQFFDPRTQNILFSTDYETHEFHLPSGVKSLNVQKASTERDTSNATSDLNIKVDGRAIVRGNEGVFIMGKTIEFHMGGNMELKAENSIILNGSVMVSTTRLPSSSSGDQLGSGDWVRYKLCMCADGTLFKVQVTSQNMGCQISDNPCGNTH [I208D] belongs -1.1; to MAAAAAAAAEQQSSNGPVKKSMREKAVERRSVNKEHNSNFKAGYIPIDEDRLHKTGLRGRKGNLAICVIILLFILAVINLIITLVIWAVIRIGPNGCDSMEFHESGLLRFKQVSDMGVIHPLYKSTVGGRRNENLVITGNNQPIVFQQGTTKLSVENNKTSITSDIGMQFFDPRTQNILFSTDYETHEFHLPSGVKSLNVQKASTERPTSNATSDLNIKVDGRAIVRGNEGVFIMGKTIEFHMGGNMELKAENSIILNGSVMVSTTRLPSSSSGDQLGSGDWVRYKLCMCADGTLFKVQVTSQNMGCQISDNPCGNTH [I208P], -1.33; to MAAAAAAAAEQQSSNGPVKKSMREKAVERRSVNKEHNSNFKAGYIPIDEDRLHKTGLRGRKGNLAICVIILLFILAVINLIITLVIWAVIRIGPNGCDSMEFHESGLLRFKQVSDMGVIHPLYKSTVGGRRNENLVITGNNQPIVFQQGTTKLSVENNKTSITSDIGMQFFDPRTQNILFSTDYETHEFHLPSGVKSLNVQKASTERFTSNATSDLNIKVDGRAIVRGNEGVFIMGKTIEFHMGGNMELKAENSIILNGSVMVSTTRLPSSSSGDQLGSGDWVRYKLCMCADGTLFKVQVTSQNMGCQISDNPCGNTH [I208F], -0.61. Then MAAAAAAAAEQQSSNGPVKKSMREKAVERRSVNKEHNSNFKAGYIPIDEDRLHKTGLRGRKGNLAICVIILLFILAVINLIITLVIWAVIRIGPNGCDSMEFHESGLLRFKQVSDMGVIHPLYKSTVGGRRNENLVITGNNQPIVFQQGTTKLSVENNKTSITSDIGMQFFDPRTQNILFSTDYETHEFHLPSGVKSLNVQKASTERLTSNATSDLNIKVDGRAIVRGNEGVFIMGKTIEFHMGGNMELKAENSIILNGSVMVSTTRLPSSSSGDQLGSGDWVRYKLCMCADGTLFKVQVTSQNMGCQISDNPCGNTH [I208L], with 0.3; and MAAAAAAAAEQQSSNGPVKKSMREKAVERRSVNKEHNSNFKAGYIPIDEDRLHKTGLRGRKGNLAICVIILLFILAVINLIITLVIWAVIRIGPNGCDSMEFHESGLLRFKQVSDMGVIHPLYKSTVGGRRNENLVITGNNQPIVFQQGTTKLSVENNKTSITSDIGMQFFDPRTQNILFSTDYETHEFHLPSGVKSLNVQKASTERHTSNATSDLNIKVDGRAIVRGNEGVFIMGKTIEFHMGGNMELKAENSIILNGSVMVSTTRLPSSSSGDQLGSGDWVRYKLCMCADGTLFKVQVTSQNMGCQISDNPCGNTH [I208H], with -1.66.

With MAAAAAAAAEQQSSNGPVKKSMREKAVERRSVNKEHNSNFKAGYIPIDEDRLHKTGLRGRKGNLAICVIILLFILAVINLIITLVIWAVIRIGPNGCDSMEFHESGLLRFKQVSDMGVIHPLYKSTVGGRRNENLVITGNNQPIVFQQGTTKLSVENNKTSITSDIGMQFFDPRTQNILFSTDYETHEFHLPSGVKSLNVQKASTERKTSNATSDLNIKVDGRAIVRGNEGVFIMGKTIEFHMGGNMELKAENSIILNGSVMVSTTRLPSSSSGDQLGSGDWVRYKLCMCADGTLFKVQVTSQNMGCQISDNPCGNTH [I208K], the “SGCB cell-surface expression functional score (log10)” value is -1.11. Then MAAAAAAAAEQQSSNGPVKKSMREKAVERRSVNKEHNSNFKAGYIPIDEDRLHKTGLRGRKGNLAICVIILLFILAVINLIITLVIWAVIRIGPNGCDSMEFHESGLLRFKQVSDMGVIHPLYKSTVGGRRNENLVITGNNQPIVFQQGTTKLSVENNKTSITSDIGMQFFDPRTQNILFSTDYETHEFHLPSGVKSLNVQKASTERETSNATSDLNIKVDGRAIVRGNEGVFIMGKTIEFHMGGNMELKAENSIILNGSVMVSTTRLPSSSSGDQLGSGDWVRYKLCMCADGTLFKVQVTSQNMGCQISDNPCGNTH [I208E], with -2.83.
